From patent US9109007B2, “MHC-I restricted epitopes containing non-natural amino acid residues” (Purdue Pharma L.P., priority 2010, dated 2015)
Where no end group is shown, it is not given here. [ ]: non-standard residue; d: D form. Gly(cPent) = N[C@H](C(=O)O)C1CCCC1

Target: T1, HLA-A2 (Homo sapiens, UniProt P04439, D140Y/D185E/D98H/E176V/E277Q/G131W/G231S/I119V/I121R/I166T/I218V/L300P/N151K/N90K/P208A/P217A/Q86G/Q94H/R138H/R169H)
T1 construct: Soluble Class I/Plate-Based Assays; purchased Beckman Coulter
Experiment: iTopia plate-based assay: stability (half-life) of peptide/HLA-A2 complexes
Assay type: binding
Conditions: for stability of complex with HLA-A2 compared with the corresponding native survivin peptide: Survivin peptide derivatives
Procedure: II. Soluble Class I/Plate-Based Assays The plate-based assay, named iTopia™, is a commercial assay (Beckman Coulter). The assay is performed in wells of microtiter plates. At the outset of the assay, MHCI complexes (properly folded MI-IC heavy chain, beta 2 microglobulin and a place-holder peptide), are tethered to streptavidin-coated microplate wells. (Proper formation/folding of the MHC complex may be determined by binding of an anti-HLA-ABC antibody). A buffer designed to unfold and dissociate the complex was added to each test well, allowed to incubate, and the place holder peptide and beta 2 microglobulin were washed away. Escalating concentrations of the test peptide, along with additional beta 2 microglobulin, were added to each well and incubated in a buffer designed to promote refolding of complexes. Plates were incubated overnight at 21° C. Properly folded MHCI complex molecules were detected with a fluorescently labeled antibody selected based on its ability to only bind properly folded MHCI complexes. Binding was reported relative to a standardized positive control peptide. Relative affinities were reported as ED50, and are defined herein as the concentration of peptide required to achieve half maximal binding of the positive control. […] Assessment of Peptide/HLA-A0201 Complex Stability. MHCI complexes were dissociated in each test well using stripping buffer, and the place-holder peptide and beta 2 microglobulin were washed away. 100 uM of the test peptide was added to appropriate wells along with additional beta 2 microglobulin and the anti-HLA ABC antibody, and the plates were incubated overnight at 21° C. Plates were washed, and fresh buffer was added to each well. Plates were shifted to 37° C., and the appropriate wells were read at 0, 0.5, 1, 1.5, 2, 4, 6 and 8 hours.

In the case of K-[cpg]-RRAIEQL (K[Gly(cPent)]RRAIEQL), the “increase in the half life of the HLA-A2 peptide complex compared to the native survivin peptide” value (Survivin peptide derivative vs native survivin peptide) was “greater than 20 fold” and the “stability of complex with HLA-A2 compared with the corresponding native survivin peptide” value was “more stable complex”.

With I-[cpg]-TFKNWPF (I[Gly(cPent)]TFKNWPF) the “stability of complex with HLA-A2 compared with the corresponding native survivin peptide” value was “more stable complex”.
